Reference: patent publication US20100292442A1 (Amgen, published 2010)
Like-named read-outs stand apart in the source and are kept apart here.

Assays:
[1] = target: T1, cynomolgus IL-17RA on cells (cynomolgus); test: FACS competition, non-clonal hybridoma supernatant; MFI of biotin-huIL-17A (competitor, 500 ng/ml) on cyno IL-17RA+ CHO cells
T1 construct: whole, on cells; also called CHO-cynoIL-17RA; cyno IL-17RA+ CHO cells

[2] = target: T1, cynomolgus IL-17RA on cells; test: cell-based or functional assay
[3] = target: T1, cynomolgus IL-17RA on cells; test: FACS competition, non-clonal hybridoma supernatant; MFI of biotin-huIL-17A (competitor, 500 ng/ml) on cyno IL-17RA+ CHO cells; remark: listed apart in the source
huIL-17RA-FLAG-polyHis = target: T2, huIL-17RA-FLAG-polyHis (human, UniProt Q96F46 33-320); test: Luminex binning; bead huIgG control (f15) + IL-17RA [D00007 Fig. 8B]
T2 construct: also called wild-type IL-17RA-FLAG-polyHis; HuIL-17RA-Flag-pHis
Experimental: Cross-competition studies were performed to determine IL-17RA binding characteristics of exemplary IL-17RA neutralizing antibodies. […] The method employed the Bio-Plex Workstation and software (BioRad, Hercules, Calif.), as well as reagents from Luminex® Corp. (Austin, Tex.). The manufacturers' basic protocols were followed except where noted below (see www.bio-rad.com and www.luminexcorp.com for details). […] The mouse-anti-human IgG coating was evaluated and the beads quantified by FACS. Each bead code was separately incubated with 10 ul of anti-IL-17RA antibody for 1 hour at room temperature and then washed. The beads were pooled and then dispensed to a 96-well filter plate (Millipore, Billerica, Mass., product #MSBVN1250). […] The PE-tagged monovalent antibody will detect the presence of the second mAb added to the well, but not the first mAb captured by the monovalent mouse-anti-human IgG antibody. Beads were resuspended in 120 ul PBSAT and at least 100 events/bead code were collected on the Bio-Plex workstation as per the manufacturer's recommended protocol.

[4] = target: T3, Human IL-17RA full-length expressed on the surface of cells (human, UniProt Q96F46 33-866); test: FACS competition, non-clonal hybridoma supernatant; % cells positive for biotin-huIL-17A (competitor, 500 ng/ml) on huIL-17RA+ CHO cells (second % positive column)
T3 construct: used here for over-expressing CHO cells (FACS) and for the native receptor on human fibroblasts (bioassays); also called IL-17RA CHO cells; CHO-huIL-17RA
Experimental: (§1) Non-clonal hybridoma supernatants were prepared in volumes of 1-2 mls (the Ig concentrations were not determined for these supernatants). […] Anti-IL-17RA non-clonal hybridomas were selected for sub-cloning based on their performance in the CHO-IL-17RA FACS assay and HFF bioassay.

[5] = target: T3, Human IL-17RA full-length expressed on …; test: FACS competition, non-clonal hybridoma supernatant; % cells positive for biotin-huIL-17A (competitor, 500 ng/ml) on huIL-17RA+ CHO cells
Experimental: as §1

[6] = target: T1, cynomolgus IL-17RA on cells; test: FACS competition, non-clonal hybridoma supernatant; MFI of biotin-huIL-17A (competitor, 500 ng/ml) on cyno IL-17RA+ CHO cells; remark: listed apart in the source
Experimental: as §1

B1: AMH22/AML22 (antibody, V domains shown)
VH: QVQLVQSGAEVKKPGASVKVSCKASGYTFTRYGISWVRQAPGQGLEWMGWISAYSGNTNYAQKLQGRVTMTTDTSTSTAYMELRSLRSDDTAVYYCARRQLYFDYWGQGTLVTVSS
VL: EIVMTQSPATLSVSPGERVTLSCRASQSVSSNLAWFQQKPGQAPRPLIYDASTRAAGIPARFSGSGSGTDFTLTISSLQSEDFAVYYCQQYDNWPLTFGGGTKVEIK
notes: Fully human mAb from IgG2 XenoMouse hybridomas; also called AM-22
- MFI [1]: 18 MFI

B2: AMH14/AML14 (antibody, V domains shown)
VH: QVQLVQSGAEVKKPGASVKVSCKASGYTFTRYGISWVRQAPGQGLEWMGWISTYSGNTNYAQKLQGRVTMTTDTSTSTAYMELRSLRSDDTAVYYCARRQLYFDYWGQGTLVTVSS
VL: EIVMTQSPATLSVSPGERATLSCRASQSVSSNLAWFQQKPGQAPRPLIYDASTRATGVPARFSGSGSGTDFTLTISSLQSEDFAVYYCQQYDNWPLTFGGGTKVEIK
notes: Fully human mAb from IgG2 XenoMouse hybridomas; also called AM-14
- IC50, cynomolgous IL-17A-induced IL-6 production from JTC-12 cells [2]: ~1.2 nM
- MFI [3]: 10 MFI

B3: AMH10/AML10 (antibody, V domains shown)
VH: QVQLQESGPGLVKPSQTLSLTCTVSGGSISSGGYYWSWIRQHPGKGLEWIGYIYFSGSAYYNPSLKSRVAISVDTSKNQFSLKLSSVTAADTAVYYCAREYYDSSGYPDAFDIWGQGTMVTVSS
VL: DIQMTQSPSSVSASVGDRVTITCRASQGIRSWLAWYQQKPGKAPKLLIFAASSLQSGVPSRFSGSGSGTEFTLTISSLQPEDFATYYCQQANNFPRTFGQGTKVEIK
notes: Fully human mAb from IgG2 XenoMouse hybridomas; also called AM-10
- normalized MFI (huIL-17RA-FLAG-polyHis): 140

B4: AMH18/AML18 (antibody, V domains shown)
VH: QVQLVQSGAEVKKPGASVKVSCKASGYSFTDYYMHWVRQAPGQGLEWMGWMHPNSGGTDLAQRFQGRVTMTRDTSISTAYMELSRLRSDDTAVYYCARGGYCSTLSCSFYWYFDLWGRGTLVTVSS
VL: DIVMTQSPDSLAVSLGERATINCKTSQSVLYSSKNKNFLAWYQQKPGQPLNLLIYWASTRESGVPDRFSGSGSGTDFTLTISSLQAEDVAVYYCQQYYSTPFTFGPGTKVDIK
notes: Fully human mAb from IgG2 XenoMouse hybridomas
- normalized MFI (huIL-17RA-FLAG-polyHis): -5

B5: AMH12/AML12 (antibody, V domains shown)
VH: QVQLVQSGAEVKKPGASVKVSCKASGYTLTSYGISWVRQAPGQGLEWMGWISTYKGNTNYAQKLQGRVTMTTDTSTSTAYMELRSLRSDDTAVYYCARKQLVFDYWGQGTLVTVSS
VL: EIVMTQSPATLSVSPGERATLSCRASQSISSSLAWYQQKPGQAPRLLIYGASTRATGIPARFSGSGSGTEFTLTISSLQSENFAVYYCQQYDNWPLTFGGGTKVEIK
notes: Fully human mAb from IgG2 XenoMouse hybridomas; also called AM-12
- normalized MFI (huIL-17RA-FLAG-polyHis): 32
- % positive [4]: 1.36%
- % positive [5]: 1%
- MFI [6]: 6 MFI

B6: AMH17/AML17 (antibody, V domains shown)
VH: QVQLVQSGAEVKKPGAAVKVSCKATGYTLTSYGISWVRQAPGQGLEWMGWISAYSGNTKYAQKLQGRVTMTTDTSTSTAYMELRSLRSDDTAVYYCARKQLVFDYWGQGTLVTVSS
VL: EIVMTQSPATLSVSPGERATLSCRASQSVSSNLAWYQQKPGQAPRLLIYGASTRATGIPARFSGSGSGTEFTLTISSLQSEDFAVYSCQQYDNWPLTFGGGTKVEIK
notes: Fully human mAb from IgG2 XenoMouse hybridomas; also called AM-17
- normalized MFI (huIL-17RA-FLAG-polyHis): 56
- % positive [4]: 1.23%
- % positive [5]: 1.75%
- MFI [6]: 8 MFI

B7: AMH16/AML16 (antibody, V domains shown)
VH: QVQLVQSGAEVKKPGASVKVSCKASGYTFTSYGISWVRQAPGQGLEWMGWISAYNGNTKYAQKLQGRVTMTTDTSTSTVYMELRSLRSDDTAVYYCARKQLVFDYWGQGTLVTVSS
VL: EIVMTQSPATLSVSPGERATLSCRASQSISTSLAWYQQKPGQAPRLLIYGTSTRATGIPARFSGSGSGTEFTLTISSLQSEDFAVYFCQQYDIWPLTFGGGTKVEIK
notes: Fully human mAb from IgG2 XenoMouse hybridomas; also called AM-16
- normalized MFI (huIL-17RA-FLAG-polyHis): 95
- % positive [4]: 0.76%
- % positive [5]: 1.84%
- MFI [6]: 6 MFI

B8: AMH4/AML4 (antibody, V domains shown)
VH: QVQLVESGGGVVQPGRSLRLSCAASGINFSSYGMHWVRQAPGKGLEWVAVIWYDGSNKHYADSVKGRFTISRDNSKNTLYLQMNSLRAEDTAVYYCARDTGVYWGQGTLVTVSS
VL: not shown
notes: as for B4
- normalized MFI (huIL-17RA-FLAG-polyHis): 37

B9: AMH21/AML21 (antibody, V domains shown)
VH: EVQLVESGGGSVQPGGSLRLSCAASGFTFSSYSMNWVRQAPGKGLEWVSIISSRSSIIHYADSVKGRFTISRDNAKNSLYLQMNSLRDEDTAVYYCARPKVGGGMDVWGQGTTVTVSS
VL: DIQMTQSPSSLSASVGDRVTITCRASQGISNYLAWYQQKPGKFPELLIYAASTLQSGVPSRFSGSGSGTDFTLTISSLQPEDVATYYCQKYNRAPFTFGPGTKVDIK
notes: Fully human mAb from IgG2 XenoMouse hybridomas; also called AM-21
- normalized MFI (huIL-17RA-FLAG-polyHis): 28
- MFI [3]: 6 MFI

B10: AMH20/AML20 (antibody, V domains shown)
VH: EVQLVESGGGLVQPGGSLRLSCAASGFTFSSYSMNWVRQAPGKGLEWVSFISARSSTIYYADSVKGRFTISRDNAKNSLYLQMNSLRDEDTAVYYCARPKVGGGMDVWGQGTTVTVSS
VL: DIQMTQSPSSLSASVGDRVTITCRASQGISNYLAWYQQKPGKFPELLIYAASTLQSGVPSRFSGSGSGTDFTLTISSLQPEDVATYYCQKYNRAPFTFGPGTKVDIK
notes: Fully human mAb from IgG2 XenoMouse hybridomas; also called AM-20
- normalized MFI (huIL-17RA-FLAG-polyHis): 50

B11: AMH7/AML7 (antibody, V domains shown)
VH: QVQLVQSGAEVKKPGASVKVSCKASGYTLTRYGISWVRQAPGQGLEWMGWISAYNGNTNYAQKLQGRVTMTTDTSTSTAYMELRSLRSDDTAVYYCARRDYDILTGYYNGFDPWGQGTLVTVSS
VL: DIQMTQSPSSLSASVGDRVTITCRASQGIRNDLGWYQQKPGKAPKRLIYAASSLQSGVPSRFSGSGSGTEFTLTISSLQPEDFATYYCLQHKSYPLTFGGGTKVEIK
notes: as for B4
- normalized MFI (huIL-17RA-FLAG-polyHis): 123

B12: AMH8/AML8 (antibody, V domains shown)
VH: QVQLVQSGAEVKKPGASVKVSCKASGNTFTGYGISWVRQAPGQGLEWMGWISAYNGNTNYAQNLQGRVTMTTDTSTSTAYMELRSLRSDDTAVYYCARRDYDILTGYYNGFDPWGQGTLVTVSS
VL: DIQMTQSPSSLSASVGDRVTITCRASQGIRNDLGWYQQKPGKAPKRLIYAASSLQSGVPSRFSGSGSGTEFTLTISSLQPEDFATYYCLQHKSYPLTFGGGTKVEIK
notes: as for B4
- normalized MFI (huIL-17RA-FLAG-polyHis): 54

B13: AMH6/AML6 (antibody, V domains shown)
VH: QVQLVQSGAEVKKPGASVKVSCKASGYTLTRYGISWVRQAPGQGLEWMGWISAYNGNTNYAQKLQGRVTMTTDTSTSTAYMELRSLRSDDTAVYYCARRDYDILTGYYNGFDPWGQGTLVTVSS
VL: DIQMTQSPSSLSASVGDRVTITCRASQGIRNDLGWYQQKPGKAPKRLIYAASSLQSGVPSRFSGSGSGTEFTLTISSLQPEDFATYYCLQHKSYPLTFGGGTKVEIK
notes: as for B4
- normalized MFI (huIL-17RA-FLAG-polyHis): 26

B14: AMH11/AML11 (antibody, V domains shown)
VH: QVQLVESGGGVVQPGRSLRLSCATSGITFSSYGMHWVRQAPGKGLEWVAVIWYDGSNKYYADSVKGRFTISRDNSKNTLYLQMNSLRAEDTAVYYCARDTKDYWGQGTLVTVSS
VL: EIVMTQSPATLSVSPGERATLSCRASQSVSSNLAWYQQKPGQAPRLLIYGASTRAAGIPARFSGGGSGTAFTLTISNLQSEDFAVYYCQHYINWPKWTFGQGTKVDIK
notes: as for B4
- normalized MFI (huIL-17RA-FLAG-polyHis): 84
- MFI [1]: 9 MFI

B15: AMH5/AML5 (antibody, IgG2, V domains shown)
VH: QVQLQESGPGLVKPSETLPLTCTVSGGSIRSYYWSWIRQPAGKGLEWIGRIYRSGNTIYNPSLKSRVTMSIDTSKNQFSLTLSSVTAADTAVYYCARENYSESSGLYYYYGMDVWGQGTTVTVSS
VL: DIQMTQSPSSLSASVGDRVTITCRASQGIRNDLGWYQQKPGKAPKRLIYAASSFQSGVPSRFSGSGSGTGFTLTISSLQPEDFATYYCLQHNSYPPTFGQGTKVEIK
notes: Fully human mAb from IgG2 XenoMouse hybridomas; also called AM-5
- MFI [1]: 9 MFI

B16: AMH1/AML1 (antibody, V domains shown)
VH: QVQLQESGPGLVKPSETLSLTCTVSGGSISNYYWNWIRQSPGKGLEWIGDIYYSGSTNYNPSLKSRVTISVDTSKNQFSLKLSSVTTADTAVYYCARDGELANYYGSGSYQFYYYYGMDVWGQGTTVTVSS
VL: DILMTQSPSSLSASVGDRVTITCRASQGIRNDLGWYQQKPGKAPKRLIYAASSLQSGVPSRFSGSGSGTEFTLTISSLQPEDFATYYCLQHNSNPFTFGPGTKVDIK
notes: as for B4
- MFI [1]: 11 MFI

B17: AMH13/AML13 (antibody, V domains shown)
VH: QVQLVESGGGVVQPGRSLRLSCAASGFTFSSYGMQWVRQAPGKGLEWVAVIWYDGNKKYYADSVKGRFTISRDNSKNTLYLQMNSLRAEDTAVYYCARGRVRDYYYGMDVWGQGTTVTVSS
VL: DIVMTQTPLSLSVTPGQPASIACKSSQSLLHSDGKTYLYWYLQKPGQPPQLLIYEVSTRFSGVPDRFSGSGSGTDFTLKISRVEAEDVGVFYCMQSIQLPLTFGGGTKVEIK
notes: as for B4
- % positive [4]: 0.89%
- % positive [5]: 1.52%
- MFI [6]: 6 MFI

B18: AMH15/AML15 (antibody, IgG2, V domains shown)
VH: QVQLVESGGGVVQPGRSLRLSCAASGFTFSSYGMQWVRQAPGKGLEWVAVIWYDGNKKYYADSVKGRFTISRDNSKNTLYLQMNSLRAEDTAVYYCARGRVRDYYYGMDVWGQGTTVTVSS
VL: EIVMTQSPATLSVSPGERVTLSCRASQSVSSNLAWFQQKPGQAPRPLIYDASTRAAGIPARFSGSGSGTDFTLTISSLQSEDFAVYYCQQYDNWPLTFGGGTKVEIK
notes: Fully human mAb from IgG2 XenoMouse hybridomas; also called AM-15
- MFI [3]: 6 MFI
